# From patent publication US20090092595A1, “Suppression of sPLA2-integrin binding for treating an inflammatory condition” (REGENTS OF THE UNIVERSITY OF CALIFORNIA, priority 2007, published 2009)
# T1: integrin αvβ3 on β3-CHO cells (UniProt A0A9J7JSN3+P05106)
# T1 construct: expressed in transfected cells; host or cells: CHO
# T1 sequence (P05106 27-788): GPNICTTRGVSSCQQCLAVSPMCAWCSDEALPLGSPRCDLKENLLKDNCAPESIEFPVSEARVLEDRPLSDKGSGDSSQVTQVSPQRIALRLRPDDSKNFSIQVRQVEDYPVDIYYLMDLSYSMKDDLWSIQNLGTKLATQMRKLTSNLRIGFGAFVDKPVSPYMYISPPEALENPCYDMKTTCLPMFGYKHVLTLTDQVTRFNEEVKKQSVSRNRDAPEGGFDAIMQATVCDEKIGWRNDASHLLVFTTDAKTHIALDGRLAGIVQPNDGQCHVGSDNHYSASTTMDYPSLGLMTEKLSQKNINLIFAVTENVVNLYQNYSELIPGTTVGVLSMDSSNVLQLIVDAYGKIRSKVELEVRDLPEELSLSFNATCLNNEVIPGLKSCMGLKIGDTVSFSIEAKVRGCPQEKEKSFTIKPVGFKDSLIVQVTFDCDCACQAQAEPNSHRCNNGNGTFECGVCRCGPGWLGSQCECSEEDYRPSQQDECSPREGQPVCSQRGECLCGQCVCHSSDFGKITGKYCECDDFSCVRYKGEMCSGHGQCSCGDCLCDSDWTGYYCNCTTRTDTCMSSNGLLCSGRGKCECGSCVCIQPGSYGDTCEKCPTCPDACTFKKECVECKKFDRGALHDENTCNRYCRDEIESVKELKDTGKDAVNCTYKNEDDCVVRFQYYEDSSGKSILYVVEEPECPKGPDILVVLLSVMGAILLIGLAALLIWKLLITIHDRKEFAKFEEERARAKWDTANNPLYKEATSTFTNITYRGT
# T1 sequence (A0A9J7JSN3 31-1043): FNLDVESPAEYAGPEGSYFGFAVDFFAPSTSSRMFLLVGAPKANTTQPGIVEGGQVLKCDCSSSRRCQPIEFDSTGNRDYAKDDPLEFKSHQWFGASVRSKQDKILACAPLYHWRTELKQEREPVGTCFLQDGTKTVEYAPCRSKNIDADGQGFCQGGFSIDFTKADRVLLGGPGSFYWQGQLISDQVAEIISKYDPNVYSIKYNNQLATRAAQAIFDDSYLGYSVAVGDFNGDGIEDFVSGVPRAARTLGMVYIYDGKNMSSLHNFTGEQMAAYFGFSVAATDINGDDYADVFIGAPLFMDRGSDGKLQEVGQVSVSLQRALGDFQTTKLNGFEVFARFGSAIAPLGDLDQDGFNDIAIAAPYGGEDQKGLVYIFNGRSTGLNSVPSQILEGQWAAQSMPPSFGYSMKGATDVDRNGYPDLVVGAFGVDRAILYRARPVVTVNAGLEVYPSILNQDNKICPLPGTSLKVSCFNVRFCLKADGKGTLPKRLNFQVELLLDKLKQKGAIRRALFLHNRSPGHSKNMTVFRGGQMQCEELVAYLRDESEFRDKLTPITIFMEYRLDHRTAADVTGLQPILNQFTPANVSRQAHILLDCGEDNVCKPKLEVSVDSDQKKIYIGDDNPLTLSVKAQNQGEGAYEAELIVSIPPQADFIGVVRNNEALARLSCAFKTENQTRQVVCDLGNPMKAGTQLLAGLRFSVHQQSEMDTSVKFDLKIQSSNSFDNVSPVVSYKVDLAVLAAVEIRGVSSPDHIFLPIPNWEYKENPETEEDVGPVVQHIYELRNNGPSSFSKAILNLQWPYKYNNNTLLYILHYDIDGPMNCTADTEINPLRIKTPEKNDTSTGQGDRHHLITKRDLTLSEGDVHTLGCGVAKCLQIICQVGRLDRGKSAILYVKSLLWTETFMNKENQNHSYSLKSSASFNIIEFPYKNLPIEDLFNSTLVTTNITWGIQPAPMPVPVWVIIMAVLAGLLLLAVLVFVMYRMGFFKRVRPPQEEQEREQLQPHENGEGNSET
# B1: wt sPLA2-IIA: Secretory phospholipase A2 group IIA, wild type, recombinant from bacteria BL21, refolded (protein)
# chain: NLVNFHRMIKLTTGKEAALSYGFYGCHCGVGGRGSPKDATDRCCVTHDCCYKRLEKRGCGTKFLSYKFSNSGSRITCAKQDSCRSQLCECDKAAATCFARNKTTYNKKYQYYSNKHCRGSTPRC
# modifications: left off: small tags and cut ends
# Molecular target: T1, integrin αvβ3 on β3-CHO cells
# Test: Adhesion of cells expressing recombinant αvβ3 (β3-CHO, β3-745) to immobilized sPLA2-IIA
# Type: cell-based, human
# Settings: compared with mock-transfected cells
# Excerpt: FIG. 1. sPLA2-IIA binding to integrin αvβ3. a) Cell adhesion to sPLA2-IIA in an αvβ3- and proteoglycans-dependent manner. Wells of a 96-well microtiter plate were coated with sPLA2-IIA at indicated coating concentrations. Remaining protein-binding sites were blocked with BSA. CHO cells expressing recombinant αvβ3 (β3-CHO), mock-transfected CHO cells, proteoglycans-deficient CHO cell variant (pgs745), expressing recombinant αvβ3 (β3-745), and mock-transfected pgs745 cells (10^5 cells per well in 100 μl Tyrodes-HEPES with 1 mM MgCl2) were added to the wells. After incubating for 1 h at 37° C., unbound cells were removed by gentle rinsing and bound cells were quantified using endogenous phosphatase activity (Prater, C. A. et al., J. Cell Biol., 112:1031-1040 (1991)). Data is shown as means+/−SEM of triplicate experiments. b) Effect of anti-(33 mAb 7E3 on adhesion of β3-CHO cells to immobilized sPLA2-IIA. […] Bound FITC (FL1) and PE (FL2) were quantified in flow cytometry. […] Bound αvβ3 was detected using peroxidase-conjugated anti-6His antibody. Bound peroxidase activity was measured. […]
molecule,measurement,value
B1,adhesion of β3-CHO and β3-745 cells to immobilized sPLA2-IIA,much higher level than mock-transfected CHO or 745 cells
